Test results published in article PMC6694467.

Target: monomeric PKG Iβ that lacks the dimerization domain
Assay: crystal structure; PKG Iβ holoenzyme lacking the dimerization domain, 2.3 Å; inhibited state

- stoichiometry N: 2
Substance: monomeric PKG Iβ that lacks the dimerization domain (domain or fragment)
